From PMC9891502 (PLOS Pathogens, 2023) come the findings set out here.

For test [1], the target named is T1, full-length gB (Towne strain) expressed on HEK293T cells (Human cytomegalovirus strain Towne, UniProt P13201).
T1 construct: also called cell-associated gB
In words: flow cytometry on cells. Particulars: one partner purified. Also noted: AUC of a 3-point dilution series: unit not given beside the values. A general note: A flow cytometer gives signals particle by particle.

Test [2] has as its target T1, full-length gB (Towne strain) expressed …. In words: cell-based or functional assay.
The target in test [3] is T2, gB AD-2S1 peptide (Human cytomegalovirus (HHV-5), gB …).
T2 chain: HRANETIYNTTLKYG
The test can be described thus: ELISA; 384-well plates coated overnight at 4°C with 45 ng gB AD-2S1 peptide or gB ectodomain per well; mAbs in a 12-point 3-fold dilution from 1 μg/mL; detected with goat anti-human IgG-HRP; EC50. Particulars: both partners purified. Background: In an ELISA, binding on a coated surface is turned into a signal by an enzyme label.

The target of test [4] is T3, gB on whole CMV virions of strain TB40/E (Human cytomegalovirus strain TB40/E (gB …, UniProt P13201, strain)).
T3 construct: also called whole virion CMV strain TB40/E; source: whole TB40/E virions coated on the plate (33 PFU/well)
The test can be described thus: ELISA. Particulars: one partner purified.

Test [5] has as its target T2, gB AD-2S1 peptide. The test can be described thus: SPR. Particulars: both partners purified.

B1: TRL345 mAb (antibody, V domains shown)
VH: QVQLVESGGGVVQPGRSLRLSCAASGFTFSDYNMHWVRQAPGKGLEWVAVISIDGTYKYSADSVAGRFSLSRDNSKNTLYLQMNSLRPDDTAIYYCARDGRSVGGFSGILDPWGQGTLVTVSS
VL: EIVMTQSPATLSLSPGDRATLSCRASQSVGSYLAWYQQKPGQAPRLLMYDSSVRATGIPARFSGSGSGTDFTLTISSLEPEDFAVYYCQQRNNWPPLTFGGGTKVEIK
As for B1, the “AUC of a 3-point dilution series” value in test [1] came out at 152 ± 20.8. For the same molecule, in test [2], the “neutralization IC50 on ARPE epithelial cells” value was under 0.35 µg/mL and the “neutralization IC50 on MRC-5 fibroblasts” value is under 0.25 µg/mL.

B2: I8 with VL S30G reverted to germline (antibody, V domains shown)
VH: QVQLVESGGGVVQPGRSLRLSCAASGFTFSSYNMHWVRQAPGKGLEWVAVISNDGSNKYYADSVKGRFTISRDNSKNTLYLQMNSLRAEDTAVYYCARDGRSVGGFSGILDPWGQGTLVTVSS
VL: not shown
With B2, the binding result (in test [1]; in the test with gB AD-2S1 peptide [3]) was “binds” each time. For the same molecule, in test [2], the “fold decrease in neutralization potency for CMV strain Towne against I8” value turned out to be 9 fold.

B3: TRL345 lineage intermediate 8 (I8) mAb (antibody, V domains shown)
VH: QVQLVESGGGVVQPGRSLRLSCAASGFTFSSYNMHWVRQAPGKGLEWVAVISNDGSNKYYADSVKGRFTISRDNSKNTLYLQMNSLRAEDTAVYYCARDGRSVGGFSGILDPWGQGTLVTVSS
VL: not shown
Regarding B3, the binding result in test [4] was “binds”. Also, the “AUC of a 3-point dilution series” value in test [1] was 133 ± 33.3. For the same molecule, the “fold increase in ELISA binding magnitude against the UCA” value with gB AD-2S1 peptide [3] turned out to be 151 fold. In test [2], the “neutralization IC50, CMV strain AD169rUL131-GFP (gB genotype 2) on MRC-5 fibroblasts” value worked out at 0.83 µg/mL and the “neutralization IC50, CMV strain Towne (gB genotype 1) on MRC-5 fibroblasts” value was found to be 2.78 µg/mL.

B4: TRL345 UCA with VH A33G (antibody, V domains shown)
VH: QVQLVESGGGVVQPGRSLRLSCAASGFTFSSYGMHWVRQAPGKGLEWVAVISYDGSNKYYADSVKGRFTISRDNSKNTLYLQMNSLRAEDTAVYYCARDGRSVGGFSGILDPWGQGTLVTVSS
VL: not shown
As to B4, the “fold increase in binding against the TRL345 UCA” value was 1.1 fold in test [1] and about 15 fold in the test with gB AD-2S1 peptide [3].

B5: TRL345 lineage second intermediate (I4) mAb (antibody, V domains shown)
VH: QVQLVESGGGVVQPGRSLRLSCAASGFTFNTYNMHWVRQAPGKGLEWVAVISNDGTYKYSADSVKGRFSISRDNSKNTLYLQMNSLRPDDTAVYYCARDGRSVGGFSGILDPWGQGTLVTVSS
VL: EIVLTQSPATLSLSPGDRATLSCRASQSVGSYLAWYQQKPGQAPRLLIYDASDRATGIPARFSGSGSGTDFTLTISSLEPEDFAVYYCQQRSNWPPLTFGGGTKVEIK
As for B5, the other with gB AD-2S1 peptide [5] worked out at 5 fold.

B6: I8 with VL N53D reverted to germline (antibody, V domains shown)
VH: QVQLVESGGGVVQPGRSLRLSCAASGFTFSSYNMHWVRQAPGKGLEWVAVISNDGSNKYYADSVKGRFTISRDNSKNTLYLQMNSLRAEDTAVYYCARDGRSVGGFSGILDPWGQGTLVTVSS
VL: not shown
As to B6, the binding result (in test [1]; in the test with gB AD-2S1 peptide [3]) was “binds” in each case. In addition, in test [2], the “fold decrease in neutralization potency for CMV strain Towne against I8” value worked out at 2.5 fold.

B7: TRL345 UCA with VL S30G (antibody, V domains shown)
VH: QVQLVESGGGVVQPGRSLRLSCAASGFTFSSYAMHWVRQAPGKGLEWVAVISYDGSNKYYADSVKGRFTISRDNSKNTLYLQMNSLRAEDTAVYYCARDGRSVGGFSGILDPWGQGTLVTVSS
VL: not shown
With B7, the “fold increase in binding magnitude against the UCA” value in test [1] was found to be 1.2 fold; with gB AD-2S1 peptide [3] it was 1.8 fold.
